Measurements from US20160153020A1 (GLYCOTREK, published 2016).

Target: T1, DC-SIGN (human lectin receptor) expressed on a recombinant HEK cell line (human, UniProt Q9NNX6 1-404)
T1 construct: whole, on cells; The construct in the HEK cell line is not described
T1 sequence (looked up): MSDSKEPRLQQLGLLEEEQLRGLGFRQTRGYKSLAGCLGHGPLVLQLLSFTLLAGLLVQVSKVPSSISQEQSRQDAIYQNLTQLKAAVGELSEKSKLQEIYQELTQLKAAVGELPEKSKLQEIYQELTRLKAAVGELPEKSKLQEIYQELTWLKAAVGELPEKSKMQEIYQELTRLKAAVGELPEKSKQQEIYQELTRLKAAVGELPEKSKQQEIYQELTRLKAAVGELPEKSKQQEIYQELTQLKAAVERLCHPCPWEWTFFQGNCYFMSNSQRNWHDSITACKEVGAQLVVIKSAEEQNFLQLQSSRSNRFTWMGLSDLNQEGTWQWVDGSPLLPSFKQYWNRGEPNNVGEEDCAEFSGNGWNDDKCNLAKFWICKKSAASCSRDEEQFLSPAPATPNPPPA
Experiment: binding to recombinant HEK cells expressing DC-SIGN (method not described)

binding result: no binding
B1: infliximab produced in CHO cell lines (antibody, V domains shown)
VH: EVKLEESGGGLVQPGGSMKLSCVASGFIFSNHWMNWVRQSPEKGLEWVAEIRSKSINSATHYAESVKGRFTISRDDSKSAVYLQMTDLRTEDTGVYYCSRNYYGSTYDYWGQGTTLTVSA
VL: DILLTQSPAILSVSPGERVSFSCRASQFVGSSIHWYQQRTNGSPRLLIKYASESMSGIPSRFSGSGSGTDFTLSINTVESEDIADYYCQQSHSWPFTFGSGTNLEVKR
modifications: single N-glycosylation site at position Asn297 ; chain 1 pos 300: Asn297 (EU) carries the single N-glycan; the glycoform depends on the CHO line (Inf or Inf-Sial)
